Assay results taken from publication PMC12377726 (Proceedings of the National Academy of Sciences of the …, 2025).

Molecular target: eOD-GT8 (engineered outer domain germline-targeting version 8), monomer (HIV-1 gp120 engineered outer domain, …)

Binder | binding result
G001_gp1_V07_VRC01c_91 (antibody, V domains shown) VH: QVQLVQSGAEVKKPGASVKVSCKASGYTFTDYYIHWVRQAPGQGLEWMGWISPNSGGTNFAQKFQGSVTMTRDTSISTAYMELSRLRSDDTAVYFCARDGGWKRGWGFQFWGQGTLVTVSS VL: QSALTQPPSASGSPGQSVTISCTGTSSDVGDYKYVSWYQQHPGKAPKLVIYEVSKRPSGVPDRFSGSKSGNTASLTVSGLQAEDEADYYCSSYEVFGGGTKLTVL | binds
G001_LD_V07A_VRC01c_46 (antibody, V domains shown) VH: QVQLVQSGAEVKKPGASVKVSCKASGYTFTDYYMHWVRQAPGQGLEWMGWINPNSGGTNYAQKFQGWVTMTRDTSISTAYMELTRLRSDDTAVYYCAVRKNGGDCSFCFGYWGQGTLVTVSS VL: QSVLTQPPSVSGAPGQRVTISCTGSSSNIGAGYDVHWYQQLPGTAPKLLIYGNNNRPSGVPDRFSGSKSGTSASLAITGLQAEDEADYYCQSYEMFGGGTKLTVL | binds
G001_gp1_V07_VRC01c_111 (antibody, V domains shown) VH: QVQLVQSGAEVKKPGASVKVSCKASGYTFTGYYMHWVRQAPGQGLEWMGWIYPNSGGTNYVQEFQGRVTMTRDTSISTAYMELSRLRSDDTAVYYCATDNYTTSSMLLRTWGQGTLVTVSS VL: DIQMTQSPSTLSASVGDRVTITCRASQSISSWLAWYQQKPGKAPKLLIYKASSLESGVPSRFSGSGSGTEFTLTISSLQPDDFATYYCQQYETFGQGTKVEIK | binds
G001_gp1_V07_VRC01c_2021-0033 (antibody, V domains shown) VH: not shown VL: DIQMTQSPSTLSASVGDRVTITCRASQSISSWLAWYQQKPGKAPKLLIYKASSLESGVPSRFSGSGSGTEFTLTISSLQPDDFATYYCQQYETFGQGTKVEIK | binds
G001_LD_V07A_VRC01c_41 (antibody, V domains shown) VH: QVQLVQSGAEVKKPGASVRVSCRASGYTFSDYYIHWVRQAPGQGLEWMGWINPTSGGTNYAQRFQGRVTMTRDTSISTAYMELSRLRSDDTAVYYCARNLGNSGWYFAWGQGTLVTVSS VL: DIQMTQSPSTLSASVGDRVTITCRASQSISSWLAWYQQKPGKAPKLLIYKASSLESGVPSRFSGSGSGTEFTLTISNLQPDDFGTYYCQQYETFGQGTKVEIK | binds
G001_gp1_V07_VRC01c_2021-0034 (antibody, V domains shown) VH: QVQLVQSGAEVKKPGASVKVSCKASGYTFSGYYMHWVRQAPGQGLEWMGWINPNSGGTNYAQKFQGGVTMTRDTSISTAYMELSSLRSDDTAVYYCAREGGLGATAFDYWGQGTLVSVSS VL: DIQMTQSPSTLSASVGDRVTITCRASQSISSWLAWYQQKPGKAPKLLIYKASSLESGVPSRFSGSGSGTEFTLTISSLQPDDFATYYCQQYETFGQGTKLEIK | binds
G001_gp1_V08_VRC01c_114 (antibody, V domains shown) VH: QVQLVQSGAEVKKPGASGKVSCKASGYTFTDYYMYWVRQAPGQGLEWIGWINPTSGGSNYAQKFQGRVTMTRDTSISTAYMELSRLRSDDTAVYYCARRSEDRKAFDIWGQGTMVTVSS VL: DIQMTQSPSTLSASVGDRVTITCRASQSISSWLAWYQQKPGKAPKLLIYKASSLESGVPSKFSGSGSGTEFTLTISSLQPDDFATYYCQQYDTFGQGTKLEIK | binds
G001_gp1_V07_VRC01c_2021-0035 (antibody, V domains shown) VH: QVQLVQSGAEVKKPGASVKVSCKASGYTFTDYYLHWVRQAPGQGLEWMGWINPNSGGTNYAQKFQDWVTMTRDTSISTAYMELSRLRSDDTAVYYCARDGLAARWDFDSWGQGTLVTVSS VL: SYELTQPPSVSVAPGQTARITCGGNNIGSKSVHWYQQKPVQAPVLVVYDDGDRPSGIPERFSGSNSGNTATLTISRVEAGDEADYYCQVLEVFGTGTKVTVL | binds
G001_gp1_V07_VRC01c_2021-0044 (antibody, V domains shown) VH: not shown VL: QSALTQPASVSGPPGQSITISCTGTSSDFGGHNSVSWYQQHPGKAPKLMIYDVSNRPSGVSNRFSGSKSGNTASLTISGLQAEDEADYYCSSYKVFGGGTKLTVL | binds
G001_gp1_V07_VRC01c_97 (antibody, V domains shown) VH: QVQLVQSGAEVKKPGASVKVSCKASGYSFTDYYMHWVRQAPGQGLEWMGWINPNSGGTNYAQKFQGRVTMTRDTSISTAYMELSRLRSDDTAVYYCASDVEMANRGGWKFDYWGQGTLVTVSS VL: QSALTQPASVSGSPGQSITISCTGTSSDVGSYNLVSWYQQHPGTAPKLMIYEVSKRPSGVSNRFSGSKSGNTASLTISGLQAEDEADYYCCSYEVFGGGTKLTVL | binds
G001_gp1_V08_VRC01c_115 (antibody, V domains shown) VH: QVQLVQSGAEVKKPGASVKVFCKTSGYIFTDYYMHWVRQAPGQGLEWMGWINPNSGGTNYAQKFQGRVTMTRDTSISTAYMELSRLRSDDTAVYYCARAYYGDYGDYWGQGTLVTVSS VL: DIVMTQSPDSLAVSLGERATINCKSSQSVLYSSDNKNYLSWYQQKPRQPPKLLIYWASTRESGVPDRFTGSGSGTDFTLTISSLQAEDVAVYYCQQYWTFGQGTKVEIK | binds
G001_gp1_V07_VRC01c_2021-0031 (antibody, V domains shown) VH: not shown VL: DIQMTQSPSSLSASVGDRVTITCQASQDISEYLNWYQQKPGKAPKLLIYDASNLETGVPSRFSGSGSGTDFTFTISSLQPEDVATYYCQQYEFFGGGTKVEIK | binds
G001_gp1_V07_VRC01c_92 (antibody, V domains shown) VH: QVQLVQSGAEVRKPGASVKVSCKASGYTFTDSYMHWVRQAPGQGLEWMGWINPNSGGTNYAQKFQGRVTMTRDTSITTAYMELSRLRFDDTAIYYCATVATIAAPWAFDYWGQGALVTVSS VL: DIQMTQSPSSLSASVGDRVSITCQASQDINNYLNWYQQKPGKAPKLLIYDVSNLQTGVPSRFSGRGSGTDFTFTISSLQPEDSATYYCQQYERFGQGTKLEIK | binds
G001_gp1_V07_VRC01c_2021-0039 (antibody, V domains shown) VH: QVQLVQSGAEVKKPGASVRVSCKASGNTFTDYYMHWVRQAPGQGLEWMGWINPNSGGTNYAQKFQGRVTMTRDTSISTAYMELSRLRSDDTAVYYCASPGAAGQPWGFGYWGQGTLVTVSS VL: DIQMTQSPSSLSASVGDRVTITCQASQDISNYLNWYQQKPGKAPKLLIYDASHLETGVPSRFSGSESGTECTLTISSLQPEDIATYYCQQYEFFGGGTKVEIK | binds
G001_gp1_V07_VRC01c_2021-0048 (antibody, V domains shown) VH: RVQLVQSGAEVKKPGASVKVSCKASGYTFTGYYMHWVRQAPGQGLEWMGWINPNSGGTNYAQKFQGRVTMTRATSISTAYMELSRLRFDDTAVYYCARGGSRGWSLDYWGQGTLVTVSS VL: DIQMTQSPSSLSASVGDRVTITCQASQDISNYLNWYQQKLGKAPKLLIYDASNLETGVPSRFSGSGSGTDFSLTISSLQPEDIATYYCQQYETFGQGTKLEIK | binds
G001_gp1_V07_VRC01c_2021-0036 (antibody, V domains shown) VH: QVQLVQSGAEVKKPGASVKVSCKASGYTFTGYYMHWVRQAPGQGLEWMGWINPNSGGTNYAQKFQDWVTMTRDTSISTAYMEVSRLKSDDTAVYYCARGRAGTTAWWYFDLWGRGALVTVSS VL: DIQMTQSPSSLSASVGDRVTITCQASQDISNYLNWYQQKPGKAPKLLIYDASNLETGVPSRFSGSGSGTDFTFTISSLQPEDVATYYCQQYDSFGPGTKVDIK | binds
G001_gp1_V07_VRC01c_2021-0038 (antibody, V domains shown) VH: not shown VL: DIQMTQSPSSLSASVGDRVTITCQASQGISNYLNWYQLKPGKAPKLLISDASNLETGVPSRFSGSGSGTDFTFTISSLQPEDIATYYCQQYDYFGPGTTVDIK | binds
G001_LD_V07A_VRC01c_40 (antibody, V domains shown) VH: not shown VL: DIQMTQSPSSLSASVGDRVTITCQASQDISNYLNWYQQKPGKAPKLLIYDASNLETGVPSRFSGSASGTESSFTISSLQPEDIATYYCQQYETFGPGTKVDIK | binds
G001_gp1_V07_VRC01c_2021-0037 (antibody, V domains shown) VH: not shown VL: DIQMTQSPSSLSASVGDRVTITCQASQDISNYLNWYQQKPGKAPKLLIYDASNLETGVPSRFSGSGSGTDFTFTISSLQPEDIATYYCQEYDTFGGGTKVEIK | binds
G001_gp1_V07_VRC01c_2021-0032 (antibody, V domains shown) VH: not shown VL: EIVMTQSPATLSVSPGERATLSCRASQSVSSNLAWYQQKPGQAPRLLIYGASTRATGIPARFSGSGSGTEFTLTISSLQSEDFAVYYCQQYEFFGPGTKVDIK | binds
G001_gp1_V07_VRC01c_94 (antibody, V domains shown) VH: not shown VL: EIVMTQSPATLSVSPGERATLSCRASQSVSSNLAWYQQKPGQAPRLLIYGASTRATGIPARFSGSGSGTEFTLTISSLQSEDFAVYYCQQYNTFGQGTRLEIK | binds
G001_gp1_V07_VRC01c_90 (antibody, V domains shown) VH: QVQLVQSGAEVKKPGASVKVSCKASGYTFTDYYMHWVRQAPGQGLEWMGWINPNSGGTNYAQKFQGRVTMTRDTSISTAYVVLTRLRSDDTAVYYCATVEWGGSGWNYDYWGQGTLVTVSS VL: EIVMTQSPATLSVSPGERATLSCRASQSVSSNLAWYQQKPGQAPRLLIYGASTRATGIPARFSGSGSGTEFTLTISSLQSEDFAVYYCQQYETFGQGTKVEIK | binds
G001_gp1_V07_VRC01c_2021-0040 (antibody, V domains shown) VH: QVQLVQSGAEVKKPGASVKVSCKASGYTFTGYYMHWVRQAPGQGLEWMGWINPNSGGSNYAQKFQGRVTMTRDRSITTAYMELSRLRSDDTAVYYCARDHTGTAGWYFDLWGRGTLVTVSS VL: EIVLTQSPGTLSLSPGERATLSCRASQSVSSSYLAWYHQKPGQAPRLLIYGASSRATGIPDRFSGSGSGTDFTLTISRLEPEDFAVYYCQQYETFGQGTKVEIT | binds
G001_LD_V07A_VRC01c_65 (antibody, V domains shown) VH: QVQLVQSGAEVKKPGASVKVSCKASGYTFTGYYMHWVRQAPGQGLEWMGWINPNSGGTNYAQKFQGYVTMTRDTSISTAFMELSRLRSDDAAVYYCATSIAAPDSYWYFDLWGRGTLVTVSS VL: EIVLTQSPGTLSLSPGERATLSCRASQSVTSSYLAWYQQKPGQAPRLLIYGASSRATGIPDRFSGSGSGTDFTLTISRLEPEDFAVYYCQQYEFFGQGTKLEIK | binds
G001_gp1_V07_VRC01c_99 (antibody, V domains shown) VH: QVQLVQSGAEVKKPGASVKVSCKASGYTFTDYYMHWVRQAPGQGLEWMGWINPNSGGTNYAQKFQGRVTMTRDTSISTAYMDLSRLRSDDTAMYYCATSPHEYSTSWEFDSWGQGTLVTVSS VL: DIVLTQSPGTLSLSPGERATLSCRASQSVSSSNLAWYQQKPGQAPRLLIYGAFKRATGIPDRFSGSGSGTDFTLTISRLEPEDFAVYYCQQYETFGQGTKVEIK | binds
